Data as given in paper PMC11926874, “Patulin Detoxification by Evolutionarily Divergent Reductases of Gluconobacter oxydans ATCC 621” (Journal of Agricultural and Food Chemistry, 2025).

Experiments:
GOX0716 = target: T1, GOX0716 (Gluconobacter oxydans, UniProt Q5FT03); experiment: tryptophan fluorescence quenching; type: binding
T1 construct: recombinant N-terminal His-tagged protein
T1 sequence (Q5FT03 1-257): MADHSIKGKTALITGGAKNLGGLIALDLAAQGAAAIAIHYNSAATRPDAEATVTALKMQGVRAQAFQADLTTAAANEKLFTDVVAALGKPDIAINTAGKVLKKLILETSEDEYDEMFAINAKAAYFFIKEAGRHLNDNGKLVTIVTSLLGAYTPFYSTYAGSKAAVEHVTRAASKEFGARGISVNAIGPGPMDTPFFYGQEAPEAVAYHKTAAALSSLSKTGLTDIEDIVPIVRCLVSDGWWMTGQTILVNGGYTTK

GOX1462 = target: T2, GOX1462 (Gluconobacter oxydans, UniProt Q5FQY5); experiment: tryptophan fluorescence quenching; type: binding
T2 construct: recombinant N-terminal His-tagged protein
T2 sequence (Q5FQY5 1-359): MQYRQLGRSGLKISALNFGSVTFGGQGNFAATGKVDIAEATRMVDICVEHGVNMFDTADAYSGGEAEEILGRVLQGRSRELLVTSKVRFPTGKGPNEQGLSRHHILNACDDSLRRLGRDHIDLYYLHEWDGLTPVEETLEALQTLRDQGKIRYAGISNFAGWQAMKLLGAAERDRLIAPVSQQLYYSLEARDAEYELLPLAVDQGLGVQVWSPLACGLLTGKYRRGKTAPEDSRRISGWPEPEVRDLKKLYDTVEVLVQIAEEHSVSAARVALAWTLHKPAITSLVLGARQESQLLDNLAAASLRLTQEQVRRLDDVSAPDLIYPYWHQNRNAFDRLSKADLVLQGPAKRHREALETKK

[1] = substrate: CCCCCC=O; experiment: purified protein, by the assay type; set-up: steady-state Michaelis-Menten kinetics of carbonyl substrate reduction, NADPH consumption at 340 nm, 25 °C; settings: 25.0 °C
Description: (§1) For substrate specificity, kinetic measurements were performed at 25 °C in triplicate in 100 mM potassium phosphate buffer, pH 6.0 (for GOX0716) or pH 7.0 (for GOX1462). Substrate utilization was monitored by the decrease in the level of NADPH at 340 nm using a BioTek Epoch 2 microplate reader. Reactions were conducted in a total volume of 200 μL. The molar extinction coefficient of NADPH was determined by constructing a linear regression standard line using NADPH standards of known concentrations. One unit (1 U) of enzyme activity is defined as the amount of enzyme required to oxidize 1 μmol NADPH per minute. Stock solutions of substrates were prepared in dimethyl sulfoxide (DMSO). All kinetic data fitting was performed using nonlinear regression with GraphPad Prism, version 8. All data were fitted to the Michaelis–Menten equation. The kinetic parameters for each enzyme were determined at their respective pH optimum.

[2] = substrate: O=CC(O)CO; experiment: purified protein, by the assay type; set-up: steady-state Michaelis-Menten kinetics of carbonyl substrate reduction, NADPH consumption at 340 nm, 25 °C; settings: 25.0 °C
Description: as §1

[3] = substrate: O=Cc1ccccc1; experiment: purified protein, by the assay type; set-up: steady-state Michaelis-Menten kinetics of carbonyl substrate reduction, NADPH consumption at 340 nm, 25 °C; settings: 25.0 °C
Description: as §1

[4] = substrate: CC(=O)C=O; experiment: purified protein, by the assay type; set-up: steady-state Michaelis-Menten kinetics of carbonyl substrate reduction, NADPH consumption at 340 nm, 25 °C; settings: 25.0 °C
Description: as §1

[5] = substrate: CCC=O; experiment: purified protein, by the assay type; set-up: steady-state Michaelis-Menten kinetics of carbonyl substrate reduction, NADPH consumption at 340 nm, 25 °C; settings: 25.0 °C
Description: as §1

[6] = substrate: CCCCCCC=O; experiment: purified protein, by the assay type; set-up: steady-state Michaelis-Menten kinetics of carbonyl substrate reduction, NADPH consumption at 340 nm, 25 °C; settings: 25.0 °C
Description: as §1

purified protein [7] = substrate: O=C1Nc2ccccc2C1=O; experiment: purified protein; type: biochemical, Gluconobacter oxydans; settings: NADPH
purified protein [8] = substrate: CCCC=O; experiment: purified protein; type: biochemical, Gluconobacter oxydans; settings: NADPH
purified protein [9] = substrate: O=C1C(=O)c2ccccc2-c2ccccc21; experiment: purified protein; type: biochemical, Gluconobacter oxydans; settings: NADPH
purified protein [10] = substrate: O=C1C=C2C(=CCOC2O)O1; experiment: purified protein; type: biochemical, Gluconobacter oxydans
[11] = substrate: O=CCO; experiment: purified protein, by the assay type; set-up: steady-state Michaelis-Menten kinetics of carbonyl substrate reduction, NADPH consumption at 340 nm, 25 °C; settings: 25.0 °C
Description: as §1

[12] = substrate: CCCC=O; experiment: purified protein, by the assay type; set-up: steady-state Michaelis-Menten kinetics of carbonyl substrate reduction, NADPH consumption at 340 nm, 25 °C; settings: 25.0 °C
Description: as §1

purified protein [13] = substrate: O=Cc1ccco1; experiment: purified protein; type: biochemical, Gluconobacter oxydans; settings: NADPH
[14] = NADPH docked as the ring-opened aldehyde form: hydrogen bonds with catalytic Tyr61, Ser157 and Asn158
[15] = NADPH docked as the ring-opened aldehyde form: hydrogen bonds with catalytic Tyr159 and Thr146, Tyr156, Glu201, Pro191, Pro189

`NC(=O)C1=CN([C@@H]2O[C@H](COP(=O)(O)OP(=O)(O)OC[C@H]3O[C@@H](n4cnc5c(N)ncnc54)[C@H](OP(=O)(O)O)[C@@H]3O)[C@@H](O)[C@H]2O)C=CC1` [NADPH] was tested. Which Kd (GOX0716) did it give?
The Kd was 20.5 ± 2.86 µM.

What about the Kd (GOX1462) of the same molecule?
The Kd was 30.3 ± 3.56 µM.

B1: GOX1462 (Gluconobacter oxydans 621H) (protein)
chain: T2 sequence (Q5FQY5 1-359)
notes: recombinant N-terminal His-tagged protein
For B1, which Km [1] is on record?
The Km was 513 ± 141 µM.

And the kcat [1]?
Its kcat is 0.0251 ± 0.00251 s⁻¹.

And the kcat/Km [1]?
The kcat/Km was 48.9 ± 14.3 M⁻¹ s⁻¹.

And the Km [2]?
Its Km is 483 ± 85.9 µM.

What about the kcat [2] of the same molecule?
The kcat was 0.0181 ± 0.00121 s⁻¹.

What about the kcat/Km [2] of the same molecule?
The kcat/Km was 37.5 ± 7.12 M⁻¹ s⁻¹.

And the Km [3]?
Its Km is 258 ± 37.7 µM.

And the kcat [3]?
Its kcat is 0.0184 ± 0.000807 s⁻¹.

What about the kcat/Km [3] of the same molecule?
Its kcat/Km is 71.3 ± 10.9 M⁻¹ s⁻¹.

What about the Km [4] of the same molecule?
Its Km is 1990 ± 238 µM.

What about the kcat [4] of the same molecule?
Its kcat is 0.221 ± 0.0159 s⁻¹.

What about the kcat/Km [4] of the same molecule?
Its kcat/Km is 111 ± 15.5 M⁻¹ s⁻¹.

What about the Km [5] of the same molecule?
Its Km is 164 ± 13.7 µM.

And the kcat [5]?
Its kcat is 0.0228 ± 0.000523 s⁻¹.

What about the kcat/Km [5] of the same molecule?
The kcat/Km was 139 ± 12 M⁻¹ s⁻¹.

And the Km [6]?
The Km was 178 ± 15.6 µM.

And the kcat [6]?
The kcat was 0.027 ± 0.000671 s⁻¹.

What about the kcat/Km [6] of the same molecule?
Its kcat/Km is 152 ± 13.8 M⁻¹ s⁻¹.

What about the Km (purified protein [7]) of the same molecule?
The Km was 107 ± 17.1 µM.

What about the kcat (purified protein [7]) of the same molecule?
The kcat was 0.163 ± 0.00536 s⁻¹.

What about the kcat/Km (purified protein [7]) of the same molecule?
The kcat/Km was 1520 ± 248 M⁻¹ s⁻¹.

What about the Km (purified protein [8]) of the same molecule?
The Km was 139 ± 14.4 µM.

What about the kcat (purified protein [8]) of the same molecule?
The kcat was 0.0241 ± 0.000654 s⁻¹.

And the kcat/Km (purified protein [8])?
Its kcat/Km is 173 ± 18.5 M⁻¹ s⁻¹.

And the Km (purified protein [9])?
The Km was 31.9 ± 4.85 µM.

What about the kcat (purified protein [9]) of the same molecule?
Its kcat is 5.79 ± 0.234 s⁻¹.

What about the kcat/Km (purified protein [9]) of the same molecule?
Its kcat/Km is 182000 ± 28600 M⁻¹ s⁻¹.

And the Km (purified protein [10]; [14])?
The Km was 178 ± 25.4 µM.

What about the kcat (purified protein [10]; [14]) of the same molecule?
The kcat was 0.0389 ± 0.00145 s⁻¹.

And the kcat/Km (purified protein [10]; [14])?
The kcat/Km was 219 ± 32.3 M⁻¹ s⁻¹.

B2: GOX0716 (Gluconobacter oxydans 621H) (protein)
chain: T1 sequence (Q5FT03 1-257)
notes: as for B1
With B2 as the molecule, how does the Km [1] read?
Its Km is 509 ± 71.7 µM.

And the kcat [1]?
The kcat was 0.00946 ± 0.000516 s⁻¹.

And the kcat/Km [1]?
The kcat/Km was 18.6 ± 2.81 M⁻¹ s⁻¹.

And the Km [11]?
The Km was 607 ± 110 µM.

And the kcat [11]?
The kcat was 0.00643 ± 0.000459 s⁻¹.

What about the kcat/Km [11] of the same molecule?
Its kcat/Km is 10.6 ± 2.06 M⁻¹ s⁻¹.

And the Km [5]?
Its Km is 417 ± 52.1 µM.

What about the kcat [5] of the same molecule?
Its kcat is 0.0442 ± 0.00201 s⁻¹.

And the kcat/Km [5]?
The kcat/Km was 106 ± 14.1 M⁻¹ s⁻¹.

What about the Km [6] of the same molecule?
The Km was 637 ± 72.8 µM.

And the kcat [6]?
Its kcat is 0.0402 ± 0.00191 s⁻¹.

And the kcat/Km [6]?
Its kcat/Km is 63.1 ± 7.81 M⁻¹ s⁻¹.

What about the Km [12] of the same molecule?
The Km was 351 ± 40.4 µM.

And the kcat [12]?
The kcat was 0.0339 ± 0.00135 s⁻¹.

And the kcat/Km [12]?
The kcat/Km was 96.6 ± 11.8 M⁻¹ s⁻¹.

And the Km (purified protein [7])?
Its Km is 282 ± 40.3 µM.

And the kcat (purified protein [7])?
Its kcat is 0.127 ± 0.00588 s⁻¹.

What about the kcat/Km (purified protein [7]) of the same molecule?
The kcat/Km was 450 ± 67.6 M⁻¹ s⁻¹.

And the Km (purified protein [13])?
The Km was 94.8 ± 8.91 µM.

And the kcat (purified protein [13])?
Its kcat is 0.0103 ± 0.000223 s⁻¹.

What about the kcat/Km (purified protein [13]) of the same molecule?
The kcat/Km was 109 ± 0.0964 M⁻¹ s⁻¹.

And the Km (purified protein [9])?
Its Km is 46.9 ± 8.17 µM.

And the kcat (purified protein [9])?
The kcat was 3.14 ± 0.181 s⁻¹.

And the kcat/Km (purified protein [9])?
Its kcat/Km is 67000 ± 12300 M⁻¹ s⁻¹.

What about the Km (purified protein [10]; [15]) of the same molecule?
Its Km is 1300 ± 213 µM.

And the kcat (purified protein [10]; [15])?
The kcat was 0.0468 ± 0.00402 s⁻¹.

What about the kcat/Km (purified protein [10]; [15]) of the same molecule?
The kcat/Km was 36 ± 6.66 M⁻¹ s⁻¹.
